According to publication PMC11313866 (Science Advances, 2024):

Target: recombinant S. cerevisiae histone H3-H4 (S. cerevisiae, UniProt P61830 1-136; P02309 1-103)
Test: pull-down

binding result: binds
B1: GST-Pol32^244-350 (domain or fragment)
chain: DKNNDDLEDLLETTAEDSLMDVPKIQQTKPSETEHSKEPKSEEEPSSFIDEDGYIVTKRPATSTPPRKPSPVVKRALSSSKKQETPSSNKRLKKQGTLESFFKRKAK
